In patent US10736971B2, “Peptide-based molecules for modulating car expression or accessibility and uses thereof” (Wright State University, priority 2015, dated 2020):

Test system: AdV-β-Gal
Assay: AdV-β-Gal transduction of transfected CAR-deficient CHO-K1 cells
Format: cell-based, Chinese hamster
Settings: CHO-K1 transfected with CAR^Ex8, MAGI-1 and PDZ domain plasmids, MOI 100
Text: CAR-deficient CHO-K1 cells were A) single, B) double, or C) triple transfected with plasmids encoding CAR^Ex8, MAGI-1 (black bars), PDZ1 domain (dotted bars), or PDZ3 domain (white bars), and balanced with empty pcDNA3.1 plasmid, followed by AdV-β-Gal (MOI 100) transduction. CHO-K1 cells were double transfected with CAR^Ex8 and pcDNA3.1, MAGI-1, PDZ3, or PDZ1 and analyzed for D) total CAR^Ex8 protein or E) cell-surface biotinylated CAR^Ex8 protein expression. Quantification of at least three individual experiments is shown in all bar graphs. *p<0.05.

B1: MAGI-1 PDZ3 domain: MAGI-1 PDZ3 decoy domain, expressed from transfected plasmid in CHO-K1 cells (protein)
chain: KETGFGFRILGGNEPGEPIYIGHIVPLGAADTDGRLRSGDELICVDGTPVIGKSHQLVVQLMQQAAKQGHVNLTVR
modifications: PEPTIDE WILL BE CREATED USING CONVENTIONAL MEANS
notes: MAGI-1 PDZ3 decoy domain, expressed from transfected plasmid in CHO-K1 cells
Question: With B1 as the molecule, how does the “Adenovirus infection (AdV-β-Gal transduction)” value read?
Answer: decreases

B2: PDZ1 domain: MAGI-1 PDZ1 decoy domain, expressed from transfected plasmid in CHO-K1 cells (protein)
chain: RKSSRGFGFTVVGGDEPDEFLQIKSLVLDGPAALDGKMETGDVIVSVNDTCVLGHTHAQVVKIFQSIP
modifications: PEPTIDE WILL BE CREATED USING CONVENTIONAL MEANS
notes: MAGI-1 PDZ1 decoy domain, expressed from transfected plasmid in CHO-K1 cells
Question: Which “Adenovirus infection (AdV-β-Gal transduction)” value does the source give for B2 here?
Answer: inhibits MAGI-1-mediated CAR^Ex8 suppression to allow adenovirus infection
